Experimental data from US20210063414A1 (Dana-Farber, published 2021).

Tests used:
[1] = target: T1, Integrin alpha-V (Itgav) of MLO-Y4 cells (mouse, UniProt P43406 31-1044); experiment: DTSSP cross-linking on MLO-Y4 cells, his-tag pull-down, TMT mass spectrometry; irisin channel
T1 construct: whole, on cells
T1 sequence (looked up): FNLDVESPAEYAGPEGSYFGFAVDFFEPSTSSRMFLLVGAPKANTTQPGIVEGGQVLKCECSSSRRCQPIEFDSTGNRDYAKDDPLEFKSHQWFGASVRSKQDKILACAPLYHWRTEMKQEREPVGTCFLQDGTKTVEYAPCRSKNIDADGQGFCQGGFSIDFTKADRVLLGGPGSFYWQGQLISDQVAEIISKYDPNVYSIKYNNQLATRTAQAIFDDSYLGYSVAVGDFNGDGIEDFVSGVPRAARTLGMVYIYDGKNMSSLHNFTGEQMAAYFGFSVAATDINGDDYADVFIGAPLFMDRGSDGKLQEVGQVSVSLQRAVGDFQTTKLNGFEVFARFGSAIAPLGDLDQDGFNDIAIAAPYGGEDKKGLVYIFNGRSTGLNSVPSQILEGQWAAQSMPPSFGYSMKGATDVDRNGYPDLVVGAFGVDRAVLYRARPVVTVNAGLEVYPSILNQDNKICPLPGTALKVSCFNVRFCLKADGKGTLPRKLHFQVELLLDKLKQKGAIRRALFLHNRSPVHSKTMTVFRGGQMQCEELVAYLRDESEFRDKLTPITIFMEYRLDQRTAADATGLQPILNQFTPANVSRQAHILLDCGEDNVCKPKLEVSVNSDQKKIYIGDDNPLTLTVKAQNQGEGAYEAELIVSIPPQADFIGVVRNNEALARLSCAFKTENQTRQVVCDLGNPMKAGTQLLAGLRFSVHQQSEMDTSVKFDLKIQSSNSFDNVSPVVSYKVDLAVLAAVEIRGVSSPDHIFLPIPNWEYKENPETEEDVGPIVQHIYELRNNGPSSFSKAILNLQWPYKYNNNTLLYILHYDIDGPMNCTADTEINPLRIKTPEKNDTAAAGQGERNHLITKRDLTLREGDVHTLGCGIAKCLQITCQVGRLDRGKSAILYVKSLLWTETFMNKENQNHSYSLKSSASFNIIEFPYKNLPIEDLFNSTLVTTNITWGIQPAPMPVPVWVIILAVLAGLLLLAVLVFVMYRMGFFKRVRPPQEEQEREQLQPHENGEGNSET
Experimental: (§1) Cells were homogenized and immunoprecipitated using 6 his-tag agarose after treatment of DTSSP cross-linker. Immunoprecipitated proteins were labeled with TMT and analyzed by mass spectrometer.
(§2) A chemical cross-linker was then added and incubated with cells, and the ligands were re-purified with (presumptive) cellular proteins covalently attached. The cross-links were then reversed and the products were subjected to quantitative Mass Spectrometry (FIG. 2A).

[2] = target: T2, Integrin beta-1 (Itgb1) of MLO-Y4 cells (mouse, UniProt P09055 21-798); experiment: as above
T2 construct: whole, on cells; Endogenous protein of the mouse osteocyte-like cell line, cross-linked on intact cells; also called β1 integrin; integrin β1
Experimental: as §1, §2

[3] = target: T3, Integrin beta-5 (Itgb5) of MLO-Y4 cells (mouse, UniProt O70309 24-798); experiment: as above
T3 construct: whole, on cells; also called ITB5_MOUSE
T3 sequence (looked up): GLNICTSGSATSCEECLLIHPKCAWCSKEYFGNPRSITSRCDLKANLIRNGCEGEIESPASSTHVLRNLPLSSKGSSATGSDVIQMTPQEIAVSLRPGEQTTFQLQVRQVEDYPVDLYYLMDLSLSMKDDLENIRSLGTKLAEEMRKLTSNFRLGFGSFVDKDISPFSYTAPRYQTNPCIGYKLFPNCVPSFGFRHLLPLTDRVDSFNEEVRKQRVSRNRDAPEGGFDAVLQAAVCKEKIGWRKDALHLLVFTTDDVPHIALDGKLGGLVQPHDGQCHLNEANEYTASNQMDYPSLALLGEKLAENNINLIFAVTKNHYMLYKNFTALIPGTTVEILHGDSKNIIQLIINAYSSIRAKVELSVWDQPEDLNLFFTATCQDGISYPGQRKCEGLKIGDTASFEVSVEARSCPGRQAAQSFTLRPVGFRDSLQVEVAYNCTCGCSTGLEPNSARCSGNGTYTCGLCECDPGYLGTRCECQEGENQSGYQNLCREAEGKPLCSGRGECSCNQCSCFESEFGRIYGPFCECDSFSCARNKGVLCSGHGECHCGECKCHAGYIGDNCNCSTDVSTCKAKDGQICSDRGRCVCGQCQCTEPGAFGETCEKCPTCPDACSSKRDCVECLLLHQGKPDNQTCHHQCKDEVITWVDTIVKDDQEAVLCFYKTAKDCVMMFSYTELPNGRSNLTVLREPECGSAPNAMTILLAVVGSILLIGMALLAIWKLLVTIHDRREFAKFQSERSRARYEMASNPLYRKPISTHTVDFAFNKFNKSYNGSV
Experimental: as §1, §2

[4] = target: T1, Integrin alpha-V (Itgav) of MLO-Y4 cells; experiment: DTSSP cross-linking on MLO-Y4 cells, his-tag pull-down, TMT mass spectrometry; ratio to his-tag adipsin control
Experimental: as §1, §2

[5] = target: T3, Integrin beta-5 (Itgb5) of MLO-Y4 cells; experiment: as above
Experimental: as §1, §2

[6] = target: T2, Integrin beta-1 (Itgb1) of MLO-Y4 cells; experiment: DTSSP cross-linking of his-tag ligand on MLO-Y4 cells, his-tag pull-down, TMT quantitative mass spectrometry; ratio to his-tag adipsin control
Experimental: as §1, §2

T2 sequence (P09055 21-798): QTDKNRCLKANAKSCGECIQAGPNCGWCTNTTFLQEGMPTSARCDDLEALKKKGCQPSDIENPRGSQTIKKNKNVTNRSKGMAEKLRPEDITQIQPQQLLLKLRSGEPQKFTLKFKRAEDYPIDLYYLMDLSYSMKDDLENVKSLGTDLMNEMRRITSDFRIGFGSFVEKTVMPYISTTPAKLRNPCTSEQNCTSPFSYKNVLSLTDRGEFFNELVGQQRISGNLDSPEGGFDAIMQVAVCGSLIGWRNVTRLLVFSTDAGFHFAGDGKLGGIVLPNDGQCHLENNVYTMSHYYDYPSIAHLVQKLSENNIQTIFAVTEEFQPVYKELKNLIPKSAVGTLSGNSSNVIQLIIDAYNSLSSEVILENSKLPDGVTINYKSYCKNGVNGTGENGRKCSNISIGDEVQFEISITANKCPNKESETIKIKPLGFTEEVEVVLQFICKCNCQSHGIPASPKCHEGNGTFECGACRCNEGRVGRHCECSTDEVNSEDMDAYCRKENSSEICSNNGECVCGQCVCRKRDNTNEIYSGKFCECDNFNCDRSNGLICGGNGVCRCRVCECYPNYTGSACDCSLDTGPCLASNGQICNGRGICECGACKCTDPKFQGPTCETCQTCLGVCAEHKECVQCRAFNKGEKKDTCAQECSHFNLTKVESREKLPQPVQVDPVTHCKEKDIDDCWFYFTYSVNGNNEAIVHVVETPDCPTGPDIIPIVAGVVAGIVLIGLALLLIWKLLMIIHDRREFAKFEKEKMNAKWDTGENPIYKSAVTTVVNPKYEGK

- summed signal-to-noise value for TMT channel [1]: 60.6
- summed signal-to-noise value for TMT channel [2]: 858
- summed signal-to-noise value for TMT channel [3]: 215
- irisin/adipsin (TMT ratio) [4]: 1.11
- irisin/adipsin (TMT ratio) [5]: 1.45
- irsin/adipsin (TMT ratio) [6]: 3.44
B1: His-tag recombinant irisin (irisin (human/mouse) with a C-terminal 10 his tag, produced in HEK293 cells) (ligand)
chain: DSPSAPVNVTVRHLKANSAVVSWDVLEDEVVIGFAISQQKKDVRMLRFIQEVNTTTRSCALWDLEEDTEYIVHVQAISIQGQSPASEPVLFKTPREAEKMASKNKDEVTMKE
notes: Made in mammalian cells, glycosylated; Used in cell culture and cross-linking experiments; also called 10 His-tag irisin; his-tag irisin; not shown: C-terminal 10 his tag
